Reference: article PMC4159350, “Structure of the N-Terminal Gyrase B Fragment in Complex with ADP⋅Pi Reveals Rigid-Body Motion Induced by ATP Hydrolysis” (PLoS ONE, 2014)

Target: the molecule itself
Assay: crystal structure; GyrB43 incubated with a 15 fold molar excess of ATP and MgCl2 (hydrolysed to ADP.Pi), 50 mM Na-phosphate buffer; sitting drop, 20°C, 0.1 M tri-ammonium citrate pH 6.5, 25% PEG 2000; space group C2221, 1.8 Å; dimer by the crystallographic dyad

B1: 43 kDa N-terminal fragment of GyrB from E. coli (GyrB43) (domain or fragment)
chain: not shown
notes: DNA gyrase subunit B (GyrB), E. coli, residues 1-392, comprising the ATPase domain (20-220) and the transducer domain (221-392); amplified from E. coli genomic DNA; By the forward primer the His6 codons follow the start ATG and are followed by the codons of S2, N3, S4, Y5; No removal of the tag is described; The dimer is formed by a crystallographic two-fold axis (one monomer per asymmetric …)
- binding result: binds
